Source: patent US20100048709A1 (UNIVERSITY OF BRITISH COLUMBIA, published 2010)

Experiments:
[1] = molecular target: T1, recombinant rat thioredoxin-fused AR ligand binding domain (PanVera, 48.4 kDa) (rat, UniProt P15207 606-902); assay: cell-based or functional assay
T1 sequence (looked up): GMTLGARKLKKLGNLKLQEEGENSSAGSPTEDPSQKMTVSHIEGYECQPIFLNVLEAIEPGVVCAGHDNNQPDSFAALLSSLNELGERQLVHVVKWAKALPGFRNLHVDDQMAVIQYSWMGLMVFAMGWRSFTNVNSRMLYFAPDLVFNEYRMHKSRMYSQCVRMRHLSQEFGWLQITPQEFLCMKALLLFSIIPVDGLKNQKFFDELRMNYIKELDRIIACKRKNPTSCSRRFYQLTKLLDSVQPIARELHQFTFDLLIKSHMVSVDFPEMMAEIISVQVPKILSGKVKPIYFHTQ

[2] = molecular target: T2, recombinant rat thioredoxin-fused AR ligand binding domain (PanVera, 48.4 kDa), P15207
T2 chain: T1 sequence (looked up)

apparent affinity for androgen (R1881) by the AR-LBD, hydroxylapatite pulldown ligand binding assay [1]: 2.1 fold
increase in bound R1881 at 100 nM R1881 [1]: 1.75 fold
increase in bound R1881 at 1000 nM R1881 [1]: 1.71 fold
B1: purified His-tagged-DDC protein (6x-His N-terminal fusion of dopa decarboxylase) (enzyme, human, UniProt P20711 2-480, looked up, not shown: small tags and cut ends)
chain: NASEFRRRGKEMVDYMANYMEGIEGRQVYPDVEPGYLRPLIPAAAPQEPDTFEDIINDVEKIIMPGVTHWHSPYFFAYFPTASSYPAMLADMLCGAIGCIGFSWAASPACTELETVMMDWLGKMLELPKAFLNEKAGEGGGVIQGSASEATLVALLAARTKVIHRLQAASPELTQAAIMEKLVAYSSDQAHSSVERAGLIGGVKLKAIPSDGNFAMRASALQEALERDKAAGLIPFFMVATLGTTTCCSFDNLLEVGPICNKEDIWLHVDAAYAGSAFICPEFRHLLNGVEFADSFNFNPHKWLLVNFDCSAMWVKKRTDLTGAFRLDPTYLKHSHQDSGLITDYRHWQIPLGRRFRSLKMWFVFRMYGVKGLQAYIRKHVQLSHEFESLVRQDPRFEICVEVILGLVCFRLKGSNKVNEALLQRINSAKKIHLVPCHLRDKFVLRFAICSRTVESAHVQRAWEHIKELAADVLRAERE
R1881 concentration required to 50% saturate total AR-LBD protein [2]: in the absence of His-DDC, an R1881 concentration of 883 nM was required to 50% saturate total AR-LBD protein, while in the presence of His-DDC a lower androgen amount of 425 nM was necessary
